Reference: patent US20220204611A1 (Amgen, published 2022)

T1: human TREM2 on cells (human, UniProt Q9NZC2 19-230)
T1 sequence: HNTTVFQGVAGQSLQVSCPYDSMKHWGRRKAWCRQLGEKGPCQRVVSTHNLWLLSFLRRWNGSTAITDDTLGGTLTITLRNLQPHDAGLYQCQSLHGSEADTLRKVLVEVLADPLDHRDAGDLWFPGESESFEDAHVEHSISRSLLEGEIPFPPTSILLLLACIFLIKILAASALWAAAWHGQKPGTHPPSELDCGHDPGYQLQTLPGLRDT

T2: recombinant soluble human TREM2 protein (human TREM2 ECD-FlagHis) (human, UniProt Q9NZC2 19-174)
T2 sequence: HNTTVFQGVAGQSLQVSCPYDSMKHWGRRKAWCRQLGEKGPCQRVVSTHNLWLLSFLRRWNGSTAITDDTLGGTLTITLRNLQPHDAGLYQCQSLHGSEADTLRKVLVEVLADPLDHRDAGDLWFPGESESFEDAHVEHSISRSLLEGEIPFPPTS

T3: soluble human TREM2 protein (TREM2 ECD-huIgG1 Fc fusion protein) (human, UniProt Q9NZC2 19-174, biotinylated)
T3 construct: also called biotinylated soluble human TREM2 protein
T3 sequence: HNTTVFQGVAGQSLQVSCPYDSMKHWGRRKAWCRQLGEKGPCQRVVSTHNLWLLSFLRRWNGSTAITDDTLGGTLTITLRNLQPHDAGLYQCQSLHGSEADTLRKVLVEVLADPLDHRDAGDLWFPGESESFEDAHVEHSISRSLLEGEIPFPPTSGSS

B1: 6E7 (antibody, human IgG2, V domains shown)
VH: EVQLVQSGAEVKKPGESLKISCKGSGYSFTSYWIAWVRQMPGKGLEWMGIIYPGDSDTRYSPSFQGQVTISADKSISTAYLQWSSLKASDTAMYFCARQRTFYYDSSDYFDYWGQGTLVTVSS
VL: DIQMTQSPSSVSASVGDRVTITCRASQGISSWLAWYQQKPGKAPKLLIYAASSLQNGVPSRFSGSGSGTDFTLTISSLQPEDFATYFCQQADSFPRTFGQGTKLEIK
notes: human IgG2 from hybridoma
B2: 5E3 (antibody, human IgG2, V domains shown)
VH: QVQLVQSGAEVKKPGASVKVSCKASGYTFTGYYIHWVRQAPGLGLEWMGWINPYSGGTTSAQKFQGRVTMTRDTSISSAYMELSRLRSDDTAVYYCARDGGYLALYGTDVWGQGTTVTVSS
VL: DIQMTQSPSSLSASVGDRVTITCRASQGISNYLAWFQQKPGKAPKSLIYAASSLQSGVPSKFSGSGSGTDFTLTISSLQPEDFATYYCQQYSTYPFTFGPGTKVDIK
notes: human IgG2 from hybridoma
B3: 10E3 (antibody, human IgG2, V domains shown)
VH: EVQLVQSGAEVKKPGESLMISCKGSGYSFTNYWIGWVRQMPGKGLEWMGIIYPGDSDTRYSPSFQGQVTISADKSISTAYLQWSSLKASDTAMYFCARRRQGIWGDALDIWGQGTLVTVSS
VL: EIVMTQSPATLSVSPGERATLSCRASQSVSSNLAWFQQKPGQAPRLLIYGASTRATGIPARFSVSGSGTEFTLTISSLQSEDFAFYYCLQDNNWPPTFGPGTKVDIK
notes: human IgG2 from hybridoma
B4: 13E7 (antibody, human IgG2, V domains shown)
VH: EVQLVQSGAEVKKPGESLMISCKGSGYSFTSYWIGWVRQMPGKGLEWMGIIYPGDSDTRYSPSFQGQVTISADKSISTAYLQWSSLKASDTAMYFCARRRQGIWGDALDFWGQGTLVTVSS
VL: EIVMTQSPATLSVSPGERATLSCRASQSVSSNLAWFQQKPGQAPRLLIYGASTRATGIPARFSVSGSGTEFTLTISSLQSEDFAVYYCLQDNNWPPTFGPGTKVDIK
notes: human IgG2 from hybridoma

Legend:
human TREM2 on cells = molecular target: T1, human TREM2 on cells; assay: cell-based or functional assay
[1] = molecular target: T2, recombinant soluble human TREM2 protein …; assay: Octet BLI binning; competitor: load Ab 13E7
Method: (§1) Each of sixteen different anti-TREM2 antibodies produced from hybridomas were quantitated and loaded onto one of the anti-human Fc sensors at 5 μg/mL for 2 minutes (“Load Antibody”). The sensor was then blocked with 100 μg/mL of an irrelevant human IgG2 antibody for 5 minutes. […] Next, each of the sixteen different anti-TREM2 antibodies (“Sandwich Antibody”) was added to the sensor at 5 μg/mL and allowed to bind for 5 minutes. All assay buffers contained 10 mM Tris (pH 7.6), 0.1% Triton X-100, 150 mM NaCl, 1 mM CaCl₂, and 1 mg/mL BSA. The assay was conducted at 25° C. Experimental kinetic results were fit to a 1:1 binding model.
(§2) However, if addition of the sandwich antibody produces a binding event, then the sandwich antibody binds to a different epitope on human TREM2 than the load antibody and the two antibodies are categorized into different epitope bins.

[2] = molecular target: T2, recombinant soluble human TREM2 protein …; assay: Octet BLI binning; competitor: load Ab 16B8
Method: as §1, §2

[3] = molecular target: T2, recombinant soluble human TREM2 protein …; assay: Octet BLI binning; competitor: load Ab 24F4
Method: as §1, §2

[4] = molecular target: T2, recombinant soluble human TREM2 protein …; assay: Octet BLI binning; competitor: load Ab 26F2
In short: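 Binding of the sandwich antibody after the load antibody places the pair in different epitope bins. Sensors carried load antibody captured via anti-human Fc, blocked with irrelevant human IgG2, then exposed to sandwich antibody at 5 μg/mL for 5 min at 25° C.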

[5] = molecular target: T2, recombinant soluble human TREM2 protein …; assay: Octet BLI binning; competitor: load Ab 33B12
Method: as §1, §2

[6] = molecular target: T3, soluble human TREM2 protein (TREM2 …); assay: ELISA, hybridoma supernatant on captured biotinylated TREM2 ECD-Fc
[7] = molecular target: T2, recombinant soluble human TREM2 protein …; assay: Octet BLI binning; competitor: load Ab 4C5
Method: as §1, §2

[8] = molecular target: T2, recombinant soluble human TREM2 protein …; assay: Octet BLI binning; competitor: load Ab 4G10
Method: as §1, §2

Binder | Emax (% maximum activation compared to RnD antibody) (human TREM2 on cells) [%] | pSyk EC50, differentiated THP-1 cells (human TREM2 on cells) [nM] | sandwich binding signal [1] | sandwich binding signal [2] | sandwich binding signal [3] | sandwich binding signal [4] | sandwich binding signal [5] | OD 450 [6] [OD450] | sandwich binding signal [7] | sandwich binding signal [8]
B1 | 273 | 0.899 | 0.051 | 0.429 | 0.054 | 0.506 | 0.434 | 3.17 | – | –
B2 | 195 | 0.594 | 0.259 | -0.047 | 0.434 | -0.045 | -0.055 | 3.88 | – | –
B3 | 456 | 1 | -0.019 | 0.33 | -0.002 | 0.354 | 0.303 | 0.55 | 0 | -0.008
B4 | 460 | 0.462 | -0.017 | 0.329 | -0.002 | 0.363 | 0.303 | 0.73 | – | –
